Assays:
[1] = system: intracellular Ca2+ in cultured astrocytes; experiment: Ca2+ imaging of TFLLR-induced [Ca2+]i transient in cultured astrocytes; type: cell-based, mouse; conditions: shRNA expressing astrocytes, sniffer patch, TFLLR
Experimental: The External solution was comprised of (in mM) 150 NaCl, 10 HEPES, 3 KCl, 2 CaCl2, 2 MgCl2, 5.5 glucose, at pH 7.3 (˜320 mOsm). For voltage clamp recordings, the internal solution contained 25 μg/ml gramicidin D and (in mM) 75 Cs2SO4, 10 NaCl, 0.1 CaCl2, and 10 HEPES, at pH 7.1 (˜310 mOsm). For current clamp recordings, the internal solution contained 25 μg/ml gramicidin D and (in mM) 75 K2SO4, 10 KCl, 0.1 CaCl2, and 10 HEPES, at pH 7.1 (˜310 mOsm). Pipette resistances ranged from 5 to 8 MΩ. For perforated patch clamp, it took 20 to 30 min to achieve acceptable perforation, with final series resistances ranging from 15 to 40 MΩ.
To test if activation of PAR1 by its specific agonist (e.g., TFLLR) causes any change in membrane conductance that might contribute to glutamate release from astrocytes, the whole cell currents and intracellular Ca^2+ responses in cultured astrocytes under gramicidin-D perforated patch configuration were simultaneously recorded (FIG. 1a). This technique minimized dialysis of intracellular ions.

mBest1 = target: T1, mBest1 (Mus musculus, UniProt O88870); experiment: CAAC current in astrocytes expressing shRNA; type: cell-based; parameters: endogenous in cells; host or cells: cultured mouse cortical astrocytes
T1 sequence (O88870 1-551): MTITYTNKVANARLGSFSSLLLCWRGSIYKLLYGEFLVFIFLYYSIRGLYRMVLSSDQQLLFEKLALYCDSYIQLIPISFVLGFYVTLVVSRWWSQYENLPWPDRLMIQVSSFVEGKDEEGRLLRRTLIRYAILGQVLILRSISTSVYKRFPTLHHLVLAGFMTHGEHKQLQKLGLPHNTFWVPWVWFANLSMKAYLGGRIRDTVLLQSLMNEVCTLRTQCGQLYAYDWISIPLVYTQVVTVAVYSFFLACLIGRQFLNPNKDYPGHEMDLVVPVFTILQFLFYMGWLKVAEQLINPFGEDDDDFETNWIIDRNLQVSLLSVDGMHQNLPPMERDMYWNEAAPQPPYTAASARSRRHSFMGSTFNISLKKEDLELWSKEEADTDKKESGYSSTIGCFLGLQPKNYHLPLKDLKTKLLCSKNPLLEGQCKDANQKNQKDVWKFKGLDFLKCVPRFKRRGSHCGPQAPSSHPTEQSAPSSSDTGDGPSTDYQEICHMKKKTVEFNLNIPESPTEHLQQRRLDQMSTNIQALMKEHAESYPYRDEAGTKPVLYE
Experimental: For plasmid-based shRNA expression, the following complementary oligonucleotides were annealed and inserted into the HindIII/BglII sites of pSUPER-GFP vector (Oligo Engine):
The efficacy of the construct to interfere with mBest1 expression was tested against heterologously expressed mBest1 in HEK293T cells (ATCC) by measuring specific CAAC currents. For lentivirus-based shRNA expression, lentiviral vector containing mBest1 gene was constructed by inserting synthetic double-strand oligonucleotides 5′-[…] […]-3′ (SEQ ID NO: 30) into pstI-XbaI restriction enzyme sites of shLenti2.4 CMV lentiviral vector (Macrogen) and verified by sequencing. Scrambled oligonucleotides inserted shLenti construct (Macrogen) was used as control. […]
Patch pipettes which have 3-6MΩ of resistance are filled with the standard intracellular solution. […] The concentration of free [Ca^2+]i in the solution was determined (Kuruma, A. & Hartzell, H. C. Bimodal control of a Ca(^2+)-activated Cl(−) channel by difference Ca(^2+) signals. J Gen Physiol 115, 59-80 (2000), which is hereby incorporated by reference for all purposes as if fully set forth herein). […]

B1: mBest1 shRNA: mBest1-specific short hairpin RNA, SEQ ID NO: 3 and 4 (lentiviral: SEQ ID NO: 30), nucleotides 563-582 of mBest1 (nucleic acid)
chain 1: GATCCCCTTGCCAACTTGTCAATGAATTCAAGAGATTCATTGACAAGTTGGCAATTTTTA
chain 2: GGGAACGGTTGAACAGTTACTTAAGTTCTCTAAGTAACTGTTCAACCGTTAAAAATTCGA
- increase in astrocytic intracellular Ca2+ [1]: unaffected
- CAAC current in astrocyte (mBest1): 49.7±8.3 pA
